Measurements taken from US20050042747A1, “Hivgp120-induced bob/gpr15 activation” (priority 2001, published 2005).

Columns and labels:
Type in all cases: cell-based
Parameters in all cases: key: — = no calcium flux seen at any dilution tested
[1] = target: T1, CCR2b (Homo sapiens, UniProt P41597); experiment: gp120-induced calcium flux, Ghost (3) cells transfected with CCR2b; details: Ghost (3) CCR2b cells
T1 construct: host or cells: Ghost (3) cells (human osteosarcoma, CD4+)
T1 sequence (P41597 1-360 isoform P41597-2): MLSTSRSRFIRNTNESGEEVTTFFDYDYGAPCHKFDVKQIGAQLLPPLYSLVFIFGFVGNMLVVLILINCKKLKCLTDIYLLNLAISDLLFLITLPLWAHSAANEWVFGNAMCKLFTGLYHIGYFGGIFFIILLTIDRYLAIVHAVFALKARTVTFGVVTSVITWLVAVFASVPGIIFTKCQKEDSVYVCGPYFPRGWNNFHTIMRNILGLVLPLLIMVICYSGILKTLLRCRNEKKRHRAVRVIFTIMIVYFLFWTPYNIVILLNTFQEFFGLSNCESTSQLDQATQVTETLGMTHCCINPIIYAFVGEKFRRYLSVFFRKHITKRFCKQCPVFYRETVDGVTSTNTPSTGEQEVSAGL
Excerpt: (§1) Human osteosarcoma cell lines were transfected to express CD4, one or another of the HIV coreceptors, and a Green Fluorescent Protein reporter for active HIV infection, for the purpose of testing which of the known coreceptors was used to induce HIV infection by a given HIV strain (Morner A. J Virol 73:2343-9, 1999 and Deng K Nature 388:296-300, 1997). These cells were obtained from the AIDS Research and Reference Reagent Program, courtesy of Dr. Vineet KewalRamani and Dr. Dan Littman. These cells were grown in DMEM with 10% bovine calf serum supplemented with 0.5 mg/ml G418, 0.1 mg/ml hygromycin, and 1 microgram/ml puromycin, and were used at low passage number (less than 10). We have discovered that these cell lines are also activated by gp120 of certain viral strains, inducing a calcium flux in these cells.
(§2) Within 4 days of plating, coreceptor-transfected Ghost (3) cells (as well as the parent cell line not transfected to express any HIV coreceptors as a control) were put in Locke's medium, then treated with Fluo-4 (5 micrograms/ml for 30 minutes at 37° C.). […] The results are given in the following table, expressed as the minimal concentration of gp120 resulting in a significant calcium flux. […]

[2] = target: T2, CXCR4 (Homo sapiens, UniProt P61073); experiment: gp120-induced calcium flux, Ghost (3) cells transfected with CXCR4; details: Ghost (3) CXCR4 cells
T2 construct: host or cells: Ghost (3) cells (human osteosarcoma, CD4+)
Method: Calcium studies were done on HT-29 cells and Ghost (3) cells loaded with Fluo 4. The cells were placed in Locke's buffer containing 5 μg/ml Fluo 4 AM ester (Molecular Probes) for 20 to 30 minutes, then in Locke's buffer for an additional 30 minutes before testing. Various concentrations of gp120IIIB (X4 trophic), gp120CM235 (R5 trophic), gp120mN (X4 trophic), gp12093TH975 (nonsyncytium-inducing primary isolate from an asymptomatic subject, trophism undetermined but likely R5), and gp120SF2 (X4R5 trophic), ranging from 10 nM to less than 1 pM, were added in Locke's buffer.^6 The gp120 proteins were obtained from the AIDS Research Reagent Referral Program. Some HT-29 cells were given one of the following pretreatments: 50 μg/ml anti-Bob37 overnight, 1 μg/ml pertussis toxin overnight, or 4.6 μg/ml U73122 for one hour. With the HT-29 cells only, similar tests were also performed with SDF-1, MIP-1α, MIP-1β, and RANTES rather than gp120. The cells were visualized every 4 seconds in a confocal microscope, using 488 nm argon laser excitation and detection filters appropriate for fluorescein-like dyes.
as §1
Within 4 days of plating, coreceptor-transfected Ghost (3) cells (as well as the parent cell line not transfected to express any HIV coreceptors as a control) were put in Locke's medium, then treated with Fluo-4 (5 micrograms/ml for 30 minutes at 37° C.). After an additional 30 minute incubation in Locke's buffer at room temperature, the cells were examined in a confocal microscope while gp120 of various viral strains was added, and the cells were examined at 4 second intervals to look for a gp120-induced calcium flux. The results are given in the following table, expressed as the minimal concentration of gp120 resulting in a significant calcium flux. “−” means that no reproducible calcium flux was observed. “ND” means that the gp120 of that viral strain was not tested with the stated coreceptor. […]

[3] = target: T3, CCR3 (Homo sapiens, UniProt P51677); experiment: gp120-induced calcium flux, Ghost (3) cells transfected with CCR3; details: Ghost (3) CCR3 cells
T3 construct: host or cells: Ghost (3) cells (human osteosarcoma, CD4+)
T3 sequence (P51677 1-355): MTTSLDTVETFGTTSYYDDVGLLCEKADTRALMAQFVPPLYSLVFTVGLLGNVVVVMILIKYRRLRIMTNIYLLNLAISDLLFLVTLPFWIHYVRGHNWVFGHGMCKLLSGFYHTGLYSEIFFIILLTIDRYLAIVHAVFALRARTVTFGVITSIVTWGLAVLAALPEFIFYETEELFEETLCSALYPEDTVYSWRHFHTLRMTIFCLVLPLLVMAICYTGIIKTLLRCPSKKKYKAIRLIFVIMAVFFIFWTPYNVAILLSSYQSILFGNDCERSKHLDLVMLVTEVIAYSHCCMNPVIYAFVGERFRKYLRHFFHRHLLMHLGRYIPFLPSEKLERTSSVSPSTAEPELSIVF
Excerpt: as §1, §2

[4] = target: T4, CCR1 (Homo sapiens, UniProt P32246); experiment: gp120-induced calcium flux, Ghost (3) cells transfected with CCR1; details: Ghost (3) CCR1 cells
T4 construct: host or cells: Ghost (3) cells (human osteosarcoma, CD4+)
T4 sequence (P32246 1-355): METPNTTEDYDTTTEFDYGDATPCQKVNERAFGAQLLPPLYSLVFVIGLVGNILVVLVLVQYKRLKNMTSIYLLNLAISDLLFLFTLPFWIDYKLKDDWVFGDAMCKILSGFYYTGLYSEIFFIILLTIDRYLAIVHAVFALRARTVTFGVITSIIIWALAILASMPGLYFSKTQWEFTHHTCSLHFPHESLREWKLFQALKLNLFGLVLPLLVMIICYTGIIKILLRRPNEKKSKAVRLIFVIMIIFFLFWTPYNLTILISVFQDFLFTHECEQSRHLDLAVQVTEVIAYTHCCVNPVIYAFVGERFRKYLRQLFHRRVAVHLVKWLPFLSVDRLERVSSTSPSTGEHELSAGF
Excerpt: as §1, §2

Row | Substance | minimal concentration of gp120 resulting in a significant calcium flux [1] | minimal concentration of gp120 resulting in a significant calcium flux [2] | minimal concentration of gp120 resulting in a significant calcium flux ([2]; listed as IIIB) [pM] | minimal concentration of gp120 resulting in a significant calcium flux [3] | minimal concentration of gp120 resulting in a significant calcium flux [4]
1 | gp120IIIB: HIV-1 envelope surface protein gp120 of strain IIIB (X4 trophic), from the AIDS Research Reagent Referral Program | 250 nM | at least 150 pM | 150 | — | —
2 | gp120SF2: gp120 of HIV strain SF2 (X4R5 trophic) | — | — |  | — | —
